Measurements as given in US20130217572A1, “SPECIFIC DELIVERY OF AGROCHEMICALS” (VRIJE UNIVERSITEIT BRUSSEL, priority 2010, published 2013).

T1: potato lectin (Sigma) (potato, UniProt Q9S8M0 23-323)
T1 construct: Bought glycoprotein, coated on ELISA plates
T1 sequence (looked up): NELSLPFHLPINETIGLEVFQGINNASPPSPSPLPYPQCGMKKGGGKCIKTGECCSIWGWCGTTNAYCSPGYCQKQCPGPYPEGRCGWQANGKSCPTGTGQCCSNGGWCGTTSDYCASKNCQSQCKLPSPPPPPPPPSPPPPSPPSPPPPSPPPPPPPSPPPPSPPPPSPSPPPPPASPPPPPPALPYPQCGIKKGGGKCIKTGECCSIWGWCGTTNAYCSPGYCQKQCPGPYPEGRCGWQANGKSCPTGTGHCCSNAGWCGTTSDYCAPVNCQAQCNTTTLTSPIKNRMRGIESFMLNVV

B1: VHH 3E6 (VHH)
VHH: QVQLQESGGGLVQPGGTLSLSCAASGFNVRWYGMGWFRQAPGKEREGVACISALQETTAYADSVKGRFTLSRDNPKNTLSLQMNNLQPEDTGVYYCATTDCDDSSRMTYTSYLGQGTQVTVSS
notes: also called Monovalent VHH 3E6

What was measured:
potato lectin (Sigma) = biological target: T1, potato lectin (Sigma); test: microcapsule retention; K: amine capsules, BS3 two-step, 1 ug VHH/cm2; potato lectin coat 10 ug/ml; 100% coverage
unrelated antigens = test: VHH-coupled lambda-cyhalothrin microcapsules retained on wells coated with unrelated antigen; 100% surface coverage
grass leaf surface = test: VHH binding to leaf discs (microscopy); conditions: 5 μg/ml in PBS, anti-histidine Alexa-488 detection
Experimental: (§1) VHH binding to non-fixed leaf discs of potato (variety Désirée), black nightshade, grass, wheat or azalea was investigated. For comparison, binding of CBM3a to non-fixed leaf discs of potato (variety Désirée) was analyzed in parallel. Leaf discs were prepared by punching a fresh potato leaf with a 5 mm belt hole puncher tool. Leaf discs were put immediately in wells of a 96-well plate containing 200 μl per well 5% MPBS or PBS, and incubated for 30 minutes. Leaf discs were transferred to solutions containing 5 μg/ml VHH antibody fragment, respectively 5 μg/ml CBM3a in 2% MPBS or PBS and incubated for 60-90 minutes. Unbound VHH or CBM3a proteins were removed by washing three times with 2% MPBS or PBS. Bound VHH or CBM3a proteins were detected with incubation with monoclonal mouse anti-histidine antibodies directly conjugated with Alexa-488 fluorescent dye (Abd Serotec) in 1% MPBS for 1 hour. Unbound antibodies were removed by washing three times with PBS. Leaf discs were put on glass slides, covered with cover slips, and analyzed by microscopy or on a macrozoom microscope system (Nikon) or a SP5 confocal microscope system (Leica).

[1] = system: black nightshade leaf surface; test: VHH binding to leaf discs (microscopy); conditions: 5 μg/ml in PBS, anti-histidine Alexa-488 detection
Experimental: as §1

potato leaf discs [2] = test: Leaf disc binding assay with VHH-coupled Uvitex microcapsules; design: species or system potato (variety Désirée)
Experimental: A leaf disc binding assay was used to evaluate the interaction of VHH-coupled microcapsules with potato, grass and azalea leaves. ø 8 mm leaf discs were sampled from the leaves of potato pot plants (variety Désirée), from the leaves of greenhouse-grown Lollium perenne and from the leaves of azalea pot plants. Leaf discs were washed three times with PBS. Microcapsules containing lambda cyhalothrin or Uvitex were diluted to appropriate densities in 1% skimmed milk in PBS with 0.05%-TWEEN®-20. Microcapsules were added to the leaf discs and settling of microcapsules and binding of targeting agents allowed for 1 hour. Unbound microcapsules were removed by washing three to five times with PBS with 0.05%-TWEEN®-20.
Leaf discs with Uvitex microcapsules were analyzed for bound microcapsules on a macrozoom microscope system (Nikon). Microcapsules were counted using Volocity image analysis software (Perkin Elmer). A DAPI filter was used to visualize Uvitex microcapsules. […]
A titration experiment was performed to investigate what dilution factor of microcapsules with specific VHH corresponds to an application of microcapsules to which no VHH were coupled to obtain similar amounts of microcapsules after an identical treatment. Two-fold serial dilutions of microcapsules were prepared and leaf disc binding was analyzed on potato leaf discs for these dilution series. […]

potato leaf discs [3] = test: VHH binding at different temperatures; design: species or system potato (variety Désirée); conditions: 5 μg/ml in PBS; temperature range from 4° C. to 55° C.
Experimental: In order to test applicability of VHH as binders for greenhouse or field applications where binding supposedly may occur at different and sometimes even extreme temperatures, a leaf dip VHH binding experiment at different temperatures was used. Temperatures used were 4° C., room temperature, 37° C., 55° C., or 70° C. ø 8 mm potato leaf discs (variety Désirée) were cut using a puncher tool. The leaf discs were equilibrated to different temperatures by washing three times with PBS at different temperatures. Hexahistidine-tagged VHH were diluted to 5 μg/ml in PBS at different temperatures, added to the corresponding equilibrated leaf discs, and binding of VHH was allowed for 1 hour at different temperatures. After incubation with VHH, leaf discs were washed five times with PBS at room temperature. Bound VHH were detected by incubation with monoclonal mouse anti-histidine antibodies directly conjugated with Alexa-488 fluorescent dye (Abd Serotec) in PBS for 1 hour at room temperature. Unbound anti-histidine antibodies were removed by washing five times with PBS at room temperature. Leaf discs were analyzed for bound VHH with microscopy. […] Please note that leaf discs severely suffer when submerged in PBS at 70° C. for 1 hour but that binding of VHH was still detected.

potato leaf discs [4] = test: VHH binding at different pH; design: species or system potato (variety Désirée); conditions: 5 μg/ml; whole range tested from pH 2 to pH 11
Experimental: In order to test applicability of VHH as binders for greenhouse or field applications where binding supposedly may occur at pH-values, deviating strongly from physiological conditions in which antibodies naturally bind their targets, a leaf dip VHH binding experiment was carried out in a series of solutions with different pH. The following solutions were prepared: 50 mM glycine pH 2.0, 50 mM sodium acetate pH 4.0, 50 mm sodium carbonate pH 9.6, and 10 mM sodium hydroxide pH 11.0. ø 8 mm potato leaf discs (variety Désirée) were cut using a puncher tool. The leaf discs were first equilibrated to the different pH by washing three times with solutions at different pH. Hexahistidine-tagged VHH were diluted to 5 μg/ml in solutions with different pH, added to the corresponding equilibrated leaf discs, and binding of VHH was allowed for 1 hour. After incubation with VHH, leaf discs were washed three times with solutions at the corresponding different pH. After that, all were washed two times with PBS to equilibrate leaf discs to PBS. Bound VHH were detected by incubation with monoclonal mouse anti-histidine antibodies directly conjugated with Alexa-488 fluorescent dye (Abd Serotec) in PBS for 1 hour. Unbound anti-histidine antibodies were removed by washing five times with PBS. Leaf discs were analyzed for bound VHH with microscopy.

microcapsule counts (microcapsules) (potato lectin (Sigma))	Molecule	counts of bound microcapsules (microcapsules) (unrelated antigens)	binding to native grass leaf surface (grass leaf surface)	binding to native grass leaf surface (grass leaf surface; listed as 3E6)	binding to native black nightshade leaf surface [1]	binding to native black nightshade leaf surface ([1]; listed as 3E6)	binding and retaining of Uvitex microcapsules to leaf surfaces (potato leaf discs [2])	binding to leaf discs at different temperatures (potato leaf discs [3])	binding to leaf discs at different pH (potato leaf discs [4])
903	Control VHH	–	–	–	–	–	–	–	–
–	B1	861	binding to leaf surface and wounded plant tissue	bind specifically	binding leaf surface, glandular trichomes, and leaf hairs	bind specifically	capable of binding and retaining microcapsules specifically to leaf surfaces	showed detectable binding	showed detectable binding
